Assay results: patent US20220144957A1 (IMMUNECENT BIOTECHNOLOGY, published 2022)
Values belong to the molecule of their own block, whether it stands above or below them.

Legend:
[1] = molecular target: T1, human IFNAR1, full length (IFNAR1-aa1-557) (human) (UniProt P17181); experiment: cell-based or functional assay
T1 sequence (looked up): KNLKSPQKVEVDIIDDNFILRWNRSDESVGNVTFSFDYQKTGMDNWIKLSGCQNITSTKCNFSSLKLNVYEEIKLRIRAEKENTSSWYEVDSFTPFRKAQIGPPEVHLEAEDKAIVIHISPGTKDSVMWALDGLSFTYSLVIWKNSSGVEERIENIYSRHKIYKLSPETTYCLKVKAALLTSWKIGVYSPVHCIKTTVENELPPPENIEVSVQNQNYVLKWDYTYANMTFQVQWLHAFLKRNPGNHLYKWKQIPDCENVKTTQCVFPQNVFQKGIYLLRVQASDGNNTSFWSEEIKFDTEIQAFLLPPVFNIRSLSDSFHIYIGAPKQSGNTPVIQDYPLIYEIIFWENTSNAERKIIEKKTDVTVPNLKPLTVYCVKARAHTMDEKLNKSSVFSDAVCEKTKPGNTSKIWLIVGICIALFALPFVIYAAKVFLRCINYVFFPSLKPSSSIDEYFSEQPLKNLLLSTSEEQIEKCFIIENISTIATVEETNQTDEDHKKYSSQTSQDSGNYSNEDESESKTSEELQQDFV

Human IFNAR1 SD1-SD4 = molecular target: T2, Human IFNAR1 SD1-SD4 (human, UniProt P17181 28-436, limits assumed); experiment: SPR (Biacore 8K), antibody captured on anti-human IgG Fc, antigen injected
T2 construct: domain: SD1-SD4; Antigen injected in the Biacore assay
T2 sequence (looked up): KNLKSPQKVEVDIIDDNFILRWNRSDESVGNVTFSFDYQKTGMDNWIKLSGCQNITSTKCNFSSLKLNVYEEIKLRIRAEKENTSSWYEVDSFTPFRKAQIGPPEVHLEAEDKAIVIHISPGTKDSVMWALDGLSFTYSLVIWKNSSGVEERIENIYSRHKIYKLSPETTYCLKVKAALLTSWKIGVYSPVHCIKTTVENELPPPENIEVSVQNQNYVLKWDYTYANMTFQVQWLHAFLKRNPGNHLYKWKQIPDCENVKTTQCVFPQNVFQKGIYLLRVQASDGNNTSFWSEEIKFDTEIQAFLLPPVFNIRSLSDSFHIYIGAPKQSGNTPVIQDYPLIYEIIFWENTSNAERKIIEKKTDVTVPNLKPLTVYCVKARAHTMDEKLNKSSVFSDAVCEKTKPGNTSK
Protocol: Preparation of a CM5 chip surface: Using HBS-EP+ (10 mM HEPES, 150 mM NaCl, 3 mM EDTA, 0.05% surfactant P20) as running buffer, both channel 1&2 of a CM5 sensor chip (GE Healthcare, BR-1000-30) were activated with a fresh mixture of 50 mM NHS and 200 mM EDC (1:1). Anti-human IgG Fc, 20 μg/ml in 10 mM NaOAc buffer (pH 5.0), was then passed over the activated surface of the two flow cells in each channel at 10 l/min (target around 10000 RU). […] Low flow rate was maintained over 2 hours for the equilibrium of the immobilized protein.
Measurement of binding kinetics: Each antibody was captured in flow cell FC2 in channel 1&2 around 250 RU respectively, using FC1 as the reference cell, followed by injection of antigen samples at varying concentrations. The signals with captured antibody subtracted from that without captured antibody were calculated with Biacore 8K evaluation software. The running buffer was HBS-EP+(10 mM HEPES, 150 mM NaCl, 3 mM EDTA, 0.05% surfactant P20).

human IFNAR1 ECD = molecular target: T3, human IFNAR1 ECD (human, UniProt P17181 28-436); experiment: ELISA, plate coated with human IFNAR1 ECD, anti-human IgG Fc-peroxidase, OD450
T3 construct: extracellular domain; Coated on ELISA plates at 5 ug/ml
T3 sequence (looked up): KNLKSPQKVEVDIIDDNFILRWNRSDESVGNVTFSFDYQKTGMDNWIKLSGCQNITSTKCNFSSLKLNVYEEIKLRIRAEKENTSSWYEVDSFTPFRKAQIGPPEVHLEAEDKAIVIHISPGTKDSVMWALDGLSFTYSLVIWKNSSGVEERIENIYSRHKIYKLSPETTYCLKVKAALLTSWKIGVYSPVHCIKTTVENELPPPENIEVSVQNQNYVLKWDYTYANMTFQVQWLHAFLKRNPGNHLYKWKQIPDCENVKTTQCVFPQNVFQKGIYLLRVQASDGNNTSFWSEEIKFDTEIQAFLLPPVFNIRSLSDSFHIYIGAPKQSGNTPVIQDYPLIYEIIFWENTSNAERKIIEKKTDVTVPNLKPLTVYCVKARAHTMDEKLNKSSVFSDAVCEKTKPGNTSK
Protocol: 96-well plates were coated with 100ul 5 ug/ml human IFNAR1 ECD in 1×PBS and incubate at 4° C. overnight. The plates were then washed with PBST (1×PBS+0.05% Tween20) for 3 times and blocked with the blocking buffer (1×PBS+0.05% Tween20+1% BSA) at RT for 2 hr. […] The plates were washed with PBST for 3 times, followed by addition of antibody (Anti-Human IgG (Fc specific)-Peroxidase antibody produced in goat, ZSGB-BIO) at 100ul/well and then incubated at RT for 1 hr. The plates were washed with PBST 5 times and then 100ul/well TMB was added and after 15 minutes, the plates were quenched with 50ul/well 2N H₂SO₄. The plates were read with Molecular device spectra max at 450 nm.

[2] = molecular target: T4, human IFNAR1, full length (IFNAR1-aa1-557) (human, UniProt P17181 28-557); experiment: flow cytometry on cells expressing human IFNAR1, MFI of PE
T4 construct: whole, on cells; Overexpressed on HEK293T cells from pIRES2-EGFP-IFNAR1; also used here for the human IFNAR1 of the IFN-I reporter cells and the cells of the virus assays; also called IFNAR1-WT; wild type IFNAR1
T4 sequence (looked up): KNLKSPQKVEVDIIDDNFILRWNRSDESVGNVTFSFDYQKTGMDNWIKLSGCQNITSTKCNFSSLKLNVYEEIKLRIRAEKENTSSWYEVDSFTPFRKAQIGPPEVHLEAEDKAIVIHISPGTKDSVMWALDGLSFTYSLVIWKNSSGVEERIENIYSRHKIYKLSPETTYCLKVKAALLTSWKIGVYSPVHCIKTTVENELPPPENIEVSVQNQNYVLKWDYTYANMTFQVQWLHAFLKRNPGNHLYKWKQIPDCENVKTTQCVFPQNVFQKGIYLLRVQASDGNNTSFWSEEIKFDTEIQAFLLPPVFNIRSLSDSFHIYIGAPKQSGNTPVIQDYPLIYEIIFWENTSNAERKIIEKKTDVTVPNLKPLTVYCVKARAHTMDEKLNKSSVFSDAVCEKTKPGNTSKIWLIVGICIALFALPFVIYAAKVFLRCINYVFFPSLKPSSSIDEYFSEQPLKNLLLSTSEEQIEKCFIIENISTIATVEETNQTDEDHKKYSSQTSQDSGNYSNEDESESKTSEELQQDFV

B2: Hu4-6-mut-1 (antibody, V domains shown)
VH: QVQLVQSGAEVKKPGASVKVSCKASGYTFTSYWMNWVRQAPGQGLEWMGKIDPSDSETHFNQKFRDRVTLTVDKSTSTVYMELSSLRSEDTAVYYCARGGRISFDYDGALDYWGQGTLVTVSS
VL: DIQMTQSPSSLSASVGDRVTITCKSSEVIYNRLAWYQQKPGKAPKLLIYGATTLESGVPSRFSGSGSGKDYTLTISSLQPEDFATYYCQQYWNKPFTFGQGTKLEIK
notes: Hu4-6 with A108G in VH (HCDR3)
EC50 (read off the curve) [2]: ~0.07 µg/mL

B3: Hu4-6-mut-3 (antibody, V domains shown)
VH: QVQLVQSGAEVKKPGASVKVSCKASGYTFTSYWMNWVRQAPGQGLEWMGKIDPSDSETHFNQKFRDRVTLTVDKSTSTVYMELSSLRSEDTAVYYCARGGRISFDYDGALDYWGQGTLVTVSS
VL: DIQMTQSPSSLSASVGDRVTITCKSSEVIYNRLAWYQQKPGKAPKLLIYGATSLETGVPSRFSGSGSGKDYTLTISSLQPEDFATYYCQQYWNKPFTFGQGTKLEIK
notes: Hu4-6 with A108G in VH and T53S and S56T in VL
EC50 (read off the curve) [2]: ~0.06 µg/mL

B4: Hu4-6-mut-2 (antibody, V domains shown)
VH: QVQLVQSGAEVKKPGASVKVSCKASGYTFTSYWMNWVRQAPGQGLEWMGKIDPSDSETHFNQKFRDRVTLTVDKSTSTVYMELSSLRSEDTAVYYCARGGRISFDYDAALDYWGQGTLVTVSS
VL: DIQMTQSPSSLSASVGDRVTITCKSSEVIYNRLAWYQQKPGKAPKLLIYGATSLETGVPSRFSGSGSGKDYTLTISSLQPEDFATYYCQQYWNKPFTFGQGTKLEIK
notes: Hu4-6 with T53S and S56T in VL (LCDR2)
EC50 (read off the curve) [2]: ~0.06 µg/mL

Results, then the molecule that gave them:

percentage of GFP positive cells in IFN-I reporter cells, 50 pg/ml IFNβ against Mock control [1]: > 5 fold
Molecule: Human IFNβ (from UniProt P01574 22-187) (ligand)

percentage of GFP positive cells in IFN-I reporter cells, 50 pg/ml IFNω against Mock control [1]: > 5 fold
Molecule: Human IFNω (from UniProt P05000 24-195) (ligand)

Kd (Human IFNAR1 SD1-SD4): 0.461 nM
koff (Human IFNAR1 SD1-SD4): 0.000214 s⁻¹
kon (Human IFNAR1 SD1-SD4): 465000 M⁻¹ s⁻¹
EC50 (human IFNAR1 ECD): 0.00227 µg/mL
Top (human IFNAR1 ECD): 3.1 OD450
B1: Hu4-14 (antibody, V domains shown)
VH: QVQLVQSGAEVKKPGASVKVSCKASGYTFTSYWMNWVRQAPGQGLEWMGKIDPSDSETHFNQKFRDRVTLTVDKSTSTVYMELSSLRSEDTAVYYCARGGRISFDYDAALDYWGQGTLVTVSS
VL: DIQMTQSPSSLSASVGDRVTITCKSSEVIYNRLAWYQQKPGNAPKLLISGATTLESGVPSRFSGSGSGKDYTLTISSLQPEDFATYYCQQYWNKPFTFGQGTKLEIK
notes: Humanized 7G4 variant
